The values that follow come from US20110117082A1 (SHANGHAI FUDAN ZHANGJIANG BIO PHARMACEUTICAL, published 2011).

First the molecules themselves.
B1: wild-type soluble human TNFRp75:Fc fusion protein (ENBREL from AMGEN) (Fc fusion, not shown: a dimerising Fc or GST)
chain: LPAQVAFTPYAPEPGSTCRLREYYDQTAQMCCSKCSPGQHAKVFCTKTSDTVCDSCEDSTYTQLWNWVPECLSCGSRCSSDQVETQACTREQNRICTCRPGWYCALSKQEGCRLCAPLRKCRPGFGVARPGTETSDVVCKPCAPGTFSNTTSSTDICRPHQICNVVAIPGNASMDAVCTSTSPTRSMAPGAVHLPQPVSTRSQHTQPTPEPSTAPSTSFLLPMGPSPPAEGSTGD
B2: LT28-171 (lymphotoxin) (ligand, UniProt P01374 62-205, looked up)
chain: KPAAHLIGDPSKQNSLLWRANTDRAFLQDGFSLSNNSLLVPTSGIYFVYSQVVFSGKAYSPKATSSPLYLAHEVQLFSSQYPFHVPLLSSQKMVYPGLQEPWLHSMYHGAAFQLTQGDQLSTHTDGIPHLVLSPSTVFFGAFAL
notes: range 28-171; these probably count on the mature protein (171 residues), not on the precursor

Assay [1] addresses T1, LT28-171 (lymphotoxin) (UniProt P01374).
T1 sequence (looked up): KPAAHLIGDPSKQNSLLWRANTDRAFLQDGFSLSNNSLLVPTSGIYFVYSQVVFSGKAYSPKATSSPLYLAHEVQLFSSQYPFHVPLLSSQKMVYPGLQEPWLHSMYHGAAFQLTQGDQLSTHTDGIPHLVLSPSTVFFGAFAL
The assay is described as follows: cell-based or functional assay.

Assay [2] concerns the target tumor necrosis factor α (TNFα) (UniProt P01375). The assay is described as follows: cell-based or functional assay.
In assay [3] the target is B2. The assay is described as follows: cell-based or functional assay.
Assay [4] addresses B1. The assay is described as follows: SPR, Biacore3000, receptor:Fc amine-coupled to CM5 chip, ligand in flow, 1:1 Langmuir fit. As to the method:
The interaction of the receptor and the ligand was measured in kinetics assay using Wizard of Biacore3000. All the ligands were applied at a flow rate of 40 μL/min for 1 min, dissociated for 2 min, and then 50 mM NaOH and HBS-P buffer were applied at a flow rate of 100 μL/min for 15s and 60s to regenerate the ligands (50 mM NaOH and HBS-P buffer were applied at a flow rate of 100 μL/min for 10s and 30s to regenerate in the primary screening). The experimental data were fit to the 1:1 Langmuir association model in the analysis software of Biacore3000 to provide the specific kinetic constant.
In general terms: Surface plasmon resonance follows binding to a sensor surface in real time, without labels.

Chain of tumor necrosis factor α (TNFα) (P01375 77-233 limits assumed): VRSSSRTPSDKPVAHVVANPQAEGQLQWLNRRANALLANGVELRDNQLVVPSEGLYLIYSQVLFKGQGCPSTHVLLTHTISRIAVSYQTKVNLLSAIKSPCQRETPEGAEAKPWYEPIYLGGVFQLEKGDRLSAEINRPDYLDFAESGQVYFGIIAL

On to TNFRp75 (E92A): Fc fusion protein, for which, in the assay with LT28-171 (lymphotoxin) [1], the EC50(ng/ml) of the neutralizing activity of the mutants against LT came out at 7.93 ng/mL and the Enhancement of the neutralizing activity against LT was 291%. In addition, in assay [2], the EC50(ng/ml) of the neutralizing activity of the mutants (Example 9: against the cytotoxicity of TNFα) stood at 6.34 ng/mL and the Enhancement of the neutralizing activity against TNFα was found to be 130%.

With TNFRp75 (E92H): Fc fusion protein, in the assay with LT28-171 (lymphotoxin) [1], the EC50(ng/ml) of the neutralizing activity of the mutants against LT came to 3.74 ng/mL and the Enhancement of the neutralizing activity against LT stood at 1180%. In assay [2], the EC50(ng/ml) of the neutralizing activity of the mutants (Example 9: against the cytotoxicity of TNFα) worked out at 9.03 ng/mL and the Enhancement of the neutralizing activity against TNFα was found to be 129%.

On to TNFRp75 (E92N): Fc fusion protein, for which, in the assay with LT28-171 (lymphotoxin) [1], the EC50(ng/ml) of the neutralizing activity of the mutants against LT was determined as 7.94 ng/mL and the Enhancement of the neutralizing activity against LT stood at 277%. In addition, in assay [2], the EC50(ng/ml) of the neutralizing activity of the mutants (Example 9: against the cytotoxicity of TNFα) came out at 5.68 ng/mL, the Enhancement of the neutralizing activity against TNFα is 131% and the neutralizing activity to TNFα relative to wild-type soluble TNFRp75: Fc (ENBREL from AMGEN) (times that of wild-type TNFRp75: Fc) is 1.33.

TNFRp75 (E92N, W89F): Fc fusion protein: in the assay with LT28-171 (lymphotoxin) [1], the EC50(ng/ml) of the neutralizing activity of the mutants against LT came to 7.56 ng/mL and the Enhancement of the neutralizing activity against LT turned out to be 308%. For the same molecule, in assay [2], the EC50(ng/ml) of the neutralizing activity of the mutants (Example 9: against the cytotoxicity of TNFα) worked out at 1020 ng/mL and the Enhancement of the neutralizing activity against TNFα stood at 128%.

For the molecule TNFRp75 (E92S, W89Y): Fc fusion protein, in the assay with LT28-171 (lymphotoxin) [1], the EC50(ng/ml) of the neutralizing activity of the mutants against LT stood at 6.28 ng/mL and the Enhancement of the neutralizing activity against LT came to 368%. Besides, in assay [2], the EC50(ng/ml) of the neutralizing activity of the mutants (Example 9: against the cytotoxicity of TNFα) came to 12.2 ng/mL and the Enhancement of the neutralizing activity against TNFα came to 133%.

Regarding B1, the “EC50 of the neutralizing activity on LT” value with LT28-171 (lymphotoxin) [3] turned out to be 22.3 ng/mL.

For orientation: Kd means the concentration at which binding is half-saturated. Read a high Kd as weaker binding. By koff is commonly meant a measure of how fast the partners let go of each other. By kon is commonly meant the second-order rate constant of association. A lower kon goes with slower complex formation. In assay [4], B2 registered a Kd of 0.134 nM, a koff of 6.99e-07 s⁻¹ and a kon of 5230 M⁻¹ s⁻¹.
